Consider one substance from paper PMC2712996.

In the test the target is Rabbit skeletal muscle actin (F-actin) (rabbit) (UniProt P68135). In words: co-sedimentation.

“GST-Cno (aa 1,560–2,051) (domain or fragment)” registered a percent pelleted with F-actin of 41%.
